From US20210395390A1 (Bayer, published 2021)
Where a chain is given by its changes, count along the chain named. Values belong to the binder of their own block, whether it stands above or below them.

Target: anti-FXIa antibody 076D-M007-H04-CDRL3-N110D
Experiment: cell-based or functional assay

aPTT 1.5 X: 0.06 µM | biochemical FXIa assay IC 50: 0.2 nM | plasma based assay IC 50: 6 nM
B1: TPP-9251 (antibody, human IgG1, lambda, V domains shown)
VH: EVQLLESGGGLVQPGGSLRLSCAASGFTFSNYGIHWVRQAPGKGLEWVSAIGTGGDTYYADSVTGRFTISRDNSKNTLYLQMNSLRAEDTAVYYCARDRGYYDILTGLYDYWGQGTLVTVSS
VL: QSVLTQPPSASGTPGQRVTISCSGSSSNIGNNYVNWYQQLPGTAPKLLIYGNYHRPSGVPDRFSGSKSGTSASLAITGLQAEDEADYYCSSYAGSNNWVFGGGTKLTVLG

aPTT 1.5 X: 0.1 µM | biochemical FXIa assay IC 50: 0.5 nM | plasma based assay IC 50: 7 nM
B2: TPP-9258 (antibody, human IgG1, lambda, V domains shown)
VH: B1 VH with N31S, I34M, T64Q
VL: B1 VL

aPTT 1.5 X: 0.1 µM | biochemical FXIa assay IC 50: 0.5 nM | plasma based assay IC 50: 10 nM
B3: TPP-9238 (antibody, human IgG1, lambda, V domains shown)
VH: B1 VH with T64M
VL: B1 VL
